Assays:
Test in all cases: co-IP; HEK293 cells co-transfected with HA-AP2M1 and myc-NCKX2-loop variants; lysate (50 mM Tris-Cl pH 7.4, 150 mM NaCl, 1 mM EDTA, 0.5% Triton X-100) incubated with anti-c-myc agarose overnight at 4°C; eluted with c-myc peptide; anti-HA blot, densitometry, n = 5
Conditions in all cases: partners not purified
[1] = target: T1, c-myc-tagged cytoplasmic loop of NCKX2 (myc-NCKX2-loop), wild type (rat, UniProt O54701-1 288-478)
T1 construct: K+-dependent Na+/Ca2+ exchanger 2 (NCKX2), rat (NM_031743.2; O54701), cytoplasmic loop region, amino acids 288-478, in pcDNA3.1(+); also called WT; source: HEK293, transfected (calcium phosphate), in lysate; not shown: c-myc, N-terminal, kept
T1 sequence (looked up): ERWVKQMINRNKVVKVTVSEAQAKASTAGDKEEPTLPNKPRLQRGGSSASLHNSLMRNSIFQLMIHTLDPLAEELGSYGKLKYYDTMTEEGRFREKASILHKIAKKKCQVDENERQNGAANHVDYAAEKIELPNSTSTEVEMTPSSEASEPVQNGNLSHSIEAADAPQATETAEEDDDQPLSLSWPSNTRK

[2] = target: T2, c-myc-tagged cytoplasmic loop of NCKX2, Y371A mutant (rat, UniProt O54701-1 288-478, Y371A)
T2 construct: K+-dependent Na+/Ca2+ exchanger 2 (NCKX2), rat (NM_031743.2; O54701), cytoplasmic loop region, amino acids 288-478, with Y371A; also called myc-NCKX2-loop Y371A; source: HEK293, transfected (calcium phosphate), in lysate; not shown: c-myc, N-terminal, kept
T2 sequence (looked up): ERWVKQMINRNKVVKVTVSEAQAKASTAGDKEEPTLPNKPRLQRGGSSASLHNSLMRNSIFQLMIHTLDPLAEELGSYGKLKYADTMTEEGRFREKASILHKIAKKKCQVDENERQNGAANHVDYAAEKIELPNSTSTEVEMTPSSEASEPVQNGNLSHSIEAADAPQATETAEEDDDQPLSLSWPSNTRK

[3] = target: T3, c-myc-tagged cytoplasmic loop of NCKX2, phosphomimetic mutant Y365E (rat, UniProt O54701-1 288-478, Y365E)
T3 construct: K+-dependent Na+/Ca2+ exchanger 2 (NCKX2), rat (NM_031743.2; O54701), cytoplasmic loop region, amino acids 288-478, with Y365E; also called myc-NCKX2-loop Y365E; source: HEK293, transfected (calcium phosphate), in lysate; not shown: c-myc, N-terminal, kept
T3 sequence (looked up): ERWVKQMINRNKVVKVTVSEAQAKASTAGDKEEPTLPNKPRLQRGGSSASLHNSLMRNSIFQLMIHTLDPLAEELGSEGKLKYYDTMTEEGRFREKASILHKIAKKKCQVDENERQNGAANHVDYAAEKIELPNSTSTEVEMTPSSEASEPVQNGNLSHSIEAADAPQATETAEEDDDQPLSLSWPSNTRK

- amount of coimmunoprecipitated HA-AP2M1 [1]: 36.9
- amount of coimmunoprecipitated HA-AP2M1 [2]: 41.6
- amount of coimmunoprecipitated HA-AP2M1 [3]: 7.83
B1: HA-tagged AP2M1 (μ subunit of adaptor protein complex 2) (natural protein, UniProt P84092 1-435, looked up)
chain: MIGGLFIYNHKGEVLISRVYRDDIGRNAVDAFRVNVIHARQQVRSPVTNIARTSFFHVKRSNIWLAAVTKQNVNAAMVFEFLYKMCDVMAAYFGKISEENIKNNFVLIYELLDEILDFGYPQNSETGALKTFITQQGIKSQHQTKEEQSQITSQVTGQIGWRREGIKYRRNELFLDVLESVNLLMSPQGQVLSAHVSGRVVMKSYLSGMPECKFGMNDKIVIEKQGKGTADETSKSGKQSIAIDDCTFHQCVRLSKFDSERSISFIPPDGEFELMRYRTTKDIILPFRVIPLVREVGRTKLEVKVVIKSNFKPSLLAQKIEVRIPTPLNTSGVQVICMKGKAKYKASENAIVWKIKRMAGMKESQISAEIELLPTNDKKKWARPPISMNFEVPFAPSGLKVRYLKVFEPKLNYSDHDVIKWVRYIGRSGIYETRC
notes: AP2M1, μ subunit of adaptor protein complex 2 (NM_053837.1; P84092), cloned into pcDNA3; gift from Dr. Ryan (Kim and Ryan, 2009); also called HA-AP2M1; μ subunit of AP-2; source: HEK293, transfected (calcium phosphate), in lysate
